{
  "source": "patent EP4703474A1",
  "about": "“ANTI-LRRC15 ANTIBODY” (priority 2023, dated 2024)",
  "key": {"[1]": {"system": "HER2-positive breast carcinoma cell line SUM190PT", "experiment": "In vivo antitumor effect, SUM190PT subcutaneous transplant model", "details": "0.4 mg/kg, tail vein, on Day 32, female SCID mice", "description": "(§1) The antitumor effects of the antibody-drug conjugates were evaluated by using animal models in which cells of a human tumor cell line had been transplanted into immunodeficient mice, or cells of a mouse tumor cell line had been transplanted into immunocompetent mice. 4 to 6 Week-old SCID mice (CB17/Icr-Prkdc[scid]/CrlCrlj, Jackson Laboratory Japan, Inc.), NSG mice (NOD.Cg-Prkdcscid Il2rgtm1Wjl/SzJ, Jackson Laboratory Japan, Inc.), or B6J mice (C57BL/6J, Jackson Laboratory Japan, Inc.) were habituated for 3 days or more under SPF conditions before experimental use. The mice were fed with sterilized solid feed and given sterilized tap water. The major and minor diameters of the transplanted tumors were measured twice a week with an electronic digital caliper (Mitutoyo Corporation), and the estimated tumor volume was calculated using the following formula. Estimated tumor volume (mm^3) = 1/2 × major diameter (mm) × [minor diameter (mm)]^2 All antibody-drug conjugates were diluted with ABS and administered into the tail vein at doses shown in each Example. In addition, ABS (vehicle) or control hIgG-PBD prepared in Reference Example 4 was administered as the control group, in a similar manner. 5 to 6 Mice were used per group in the experiment. […]"}, "[2]": {"system": "Gastric carcinoma cell line NCI-N87", "experiment": "In vivo antitumor effect, NCI-N87 subcutaneous transplant model", "details": "0.4 mg/kg, tail vein, on Day 10, female SCID mice", "description": "as §1, with “experiment. To analyze the LRRC15 expression in mouse tumor models, immunohistochemical staining of LRRC15 was performed.” for “experiment.”"}, "[3]": {"system": "Fibrosarcoma cell line HT-1080", "experiment": "In vivo antitumor effect, HT-1080 subcutaneous transplant model", "details": "0.4 mg/kg, tail vein, on Day 7, female SCID mice", "description": "as §1, with “experiment. To analyze the LRRC15 expression in mouse tumor models, immunohistochemical staining of LRRC15 was performed.” for “experiment.”"}},
  "data": [
    {"molecule": "H02L01-V1-PBD (conjugate) heavy: EVQLVESGGGLVQPGGSLRLSCAASGFTFRDYYMAWVRQAPGKGLEWVSSIGFDESRTYYADSVKGRFTISRDDSKNTLYLQMNSLRAEDTAVYYCARHGVSKYSGDNWFAYWGQGTLVTVSSASTKGPSVFPLAPSSKSTSGGTAALGCLVKDYFPEPVTVSWNSGALTSGVHTFPAVLQSSGLYSLSSVVTVPSSSLGTQTYICNVNHKPSNTKVDKKVEPKSCDKTHTCPPCPAPEAAGGPSVFLFPPKPKDTLMISRTPEVTCVVVDVSHEDPEVKFNWYVDGVEVHNAKTKPREEQYNSTYRVVSVLTVLHQDWLNGKEYKCKVSNKALAAPIEKTISKAKGQPREPQVYTLPPSREEMTKNQVSLTCLVKGFYPSDIAVEWESNGQPENNYKTTPPVLDSDGSFFLYSKLTVDKSRWQQGNVFSCSVMHEALHNHYTQKSLSLSPGK light: DIQMTQSPSSLSASVGDRVTITCKSSQGLLYSGDQKNYLAWYQQKPGKAPKLLIYWASTRQSGVPSRFSGSGSGTDFTLTISSLQPEDFATYYCQQYYDPPYTFGQGTKVEIKRTVAAPSVFIFPPSDEQLKSGTASVVCLLNNFYPREAKVQWKVDNALQSGNSQESVTEQDSKDSTYSLSSTLTLSKADYEKHKVYACEVTHQGLSSPVTKSFNRGEC", "values": [
      {"measurement": "antitumor effect (estimated tumor volume)", "setting": "[1]", "result": "antitumor activity higher than that of the vehicle and control hIgG-PBD"},
      {"measurement": "antitumor effect (estimated tumor volume)", "setting": "[2]", "result": "antitumor activity higher than that of the vehicle"},
      {"measurement": "antitumor effect (estimated tumor volume)", "setting": "[3]", "result": "antitumor activity higher than that of the vehicle and control hIgG-PBD"}
    ]}
  ]
}
